The target of the assay is T1, His-SMARCAD1 (human, recombinant) (human, UniProt Q9H4L7 1-1026).
T1 construct: also called hSMARCAD1; His-tagged human SMARCAD1; source: insect cells (baculovirus), purified via a His-tag
T1 sequence (looked up): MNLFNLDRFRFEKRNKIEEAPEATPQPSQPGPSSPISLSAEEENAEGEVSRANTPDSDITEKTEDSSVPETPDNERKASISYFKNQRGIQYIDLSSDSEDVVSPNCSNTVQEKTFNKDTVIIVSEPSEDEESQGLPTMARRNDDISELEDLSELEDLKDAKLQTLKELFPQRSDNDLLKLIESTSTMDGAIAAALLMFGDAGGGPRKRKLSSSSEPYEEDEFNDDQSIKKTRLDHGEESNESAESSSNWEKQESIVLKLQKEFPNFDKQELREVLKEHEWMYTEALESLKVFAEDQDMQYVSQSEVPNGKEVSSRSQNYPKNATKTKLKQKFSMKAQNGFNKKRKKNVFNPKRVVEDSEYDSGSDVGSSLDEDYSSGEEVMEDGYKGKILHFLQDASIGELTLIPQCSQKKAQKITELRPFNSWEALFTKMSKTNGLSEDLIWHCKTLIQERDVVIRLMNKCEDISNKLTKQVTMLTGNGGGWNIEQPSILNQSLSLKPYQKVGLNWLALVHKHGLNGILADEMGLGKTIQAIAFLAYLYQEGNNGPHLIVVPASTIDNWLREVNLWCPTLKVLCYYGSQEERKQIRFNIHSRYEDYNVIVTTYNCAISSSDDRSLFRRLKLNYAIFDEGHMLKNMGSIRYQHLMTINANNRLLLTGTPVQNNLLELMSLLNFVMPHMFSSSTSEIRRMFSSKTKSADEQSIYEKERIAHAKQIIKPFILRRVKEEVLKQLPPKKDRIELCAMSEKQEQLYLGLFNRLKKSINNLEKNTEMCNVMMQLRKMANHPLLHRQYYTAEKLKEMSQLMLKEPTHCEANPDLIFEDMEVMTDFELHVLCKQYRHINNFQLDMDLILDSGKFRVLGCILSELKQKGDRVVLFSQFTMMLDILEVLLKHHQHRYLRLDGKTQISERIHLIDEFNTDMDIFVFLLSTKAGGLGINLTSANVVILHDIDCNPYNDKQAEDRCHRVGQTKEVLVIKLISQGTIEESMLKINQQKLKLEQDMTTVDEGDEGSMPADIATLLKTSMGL
In words: pull-down; GST fusion proteins on glutathione Sepharose 4B beads (13 ug protein), 1 ug His-Smarcad1 in solution; 100 mM NaCl, 20 mM Hepes, 5% glycerol, 0.1% Triton; 1.5 h at 4 °C; bound protein detected by Western blot with anti-SMARCAD1. To be noted: both partners purified. For orientation: A western blot detects proteins with antibodies after separation by electrophoresis.

Data on one molecule can be found in article PMC10530723, “The Conserved Chromatin Remodeler SMARCAD1 Interacts with TFIIIC and Architectural Proteins in Human and Mouse” (Genes, 2023).

B1: GST-TFIIIC102 (human, full-length) (natural protein, UniProt Q9Y5Q9 1-886, looked up)
chain: MSGFSPELIDYLEGKISFEEFERRREERKTREKKSLQEKGKLSAEENPDDSEVPSSSGINSTKSQDKDVNEGETSDGVRKSVHKVFASMLGENEDDEEEEEEEEEEEEEEETPEQPTAGDVFVLEMVLNRETKKMMKEKRPRSKLPRALRGLMGEANIRFARGEREEAILMCMEIIRQAPLAYEPFSTLAMIYEDQGDMEKSLQFELIAAHLNPSDTEEWVRLAEMSLEQDNIKQAIFCYTKALKYEPTNVRYLWERSSLYEQMGDHKMAMDGYRRILNLLSPSDGERFMQLARDMAKSYYEANDVTSAINIIDEAFSKHQGLVSMEDVNIAAELYISNKQYDKALEIITDFSGIVLEKKTSEEGTSEENKAPENVTCTIPDGVPIDITVKLMVCLVHLNILEPLNPLLTTLVEQNPEDMGDLYLDVAEAFLDVGEYNSALPLLSALVCSERYNLAVVWLRHAECLKALGYMERAAESYGKVVDLAPLHLDARISLSTLQQQLGQPEKALEALEPMYDPDTLAQDANAAQQELKLLLHRSTLLFSQGKMYGYVDTLLTMLAMLLKVAMNRAQVCLISSSKSGERHLYLIKVSRDKISDSNDQESANCDAKAIFAVLTSVLTKDDWWNLLLKAIYSLCDLSRFQEAELLVDSSLEYYSFYDDRQKRKELEYFGLSAAILDKNFRKAYNYIRIMVMENVNKPQLWNIFNQVTMHSQDVRHHRFCLRLMLKNPENHALCVLNGHNAFVSGSFKHALGQYVQAFRTHPDEPLYSFCIGLTFIHMASQKYVLRRHALIVQGFSFLNRYLSLRGPCQESFYNLGRGLHQLGLIHLAIHYYQKALELPPLVVEGIELDQLDLRRDIAYNLSLIYQSSGNTGMAQTLLYTYCSI
notes: TFIIIC102, human, full-length, cDNA from OriGene (RC208122) cloned into pGEX-6P-1 (BamH1/Not1); pGEX-6P-1 places GST at the N-terminus (surmised from the vector; the reverse primer carries the stop codon); also called hTFIIIC102; human TFIIIC102 GST-fusion protein; source: E. coli, purified (glutathione Sepharose 4B beads)
Turning to B1, the binding result is “binds”.
